Laboratory results as given in patent US20070066521, “Short RNA-binding proteins” (published 2007).

Key:
S-AC4 (SLCMV AC4) [1] = biological target: T1, S-AC4 (SLCMV AC4) (Sri Lankan cassava mosaic virus); experiment: EMSA; conditions: tags: GST fusion (pET41a), Ni-NTA purified; label: 5'-32P
T1 chain: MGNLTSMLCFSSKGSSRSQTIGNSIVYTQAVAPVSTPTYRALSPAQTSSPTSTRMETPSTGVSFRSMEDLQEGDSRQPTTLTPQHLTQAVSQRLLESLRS

S-AC4 (SLCMV AC4) [2] = biological target: T1, S-AC4 (SLCMV AC4); experiment: EMSA; text cites SEQ ID NO:29 (DNA probe); RNA oligo listed as SEQ 38; conditions: tags: GST fusion (pET41a), Ni-NTA purified; label: 5'-32P
S-AC4 (SLCMV AC4) [3] = biological target: T1, S-AC4 (SLCMV AC4); experiment: EMSA; as efficient as unmodified; conditions: tags: GST fusion (pET41a), Ni-NTA purified; label: 5'-32P
S-AC4 (SLCMV AC4) [4] = biological target: T1, S-AC4 (SLCMV AC4); experiment: EMSA; competed by 10-, 50-, 100-fold unlabelled miR165; conditions: tags: GST fusion (pET41a), Ni-NTA purified; label: 5'-32P
E-AC4 (EACMCV AC4) = biological target: T2, E-AC4 (EACMCV AC4) (East African cassava mosaic Cameroon …); experiment: EMSA; data not shown; conditions: tags: pET41a, Ni-NTA purified; label: 5'-32P
T2 chain: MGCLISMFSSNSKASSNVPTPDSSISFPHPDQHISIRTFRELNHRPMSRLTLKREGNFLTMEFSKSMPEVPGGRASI

E-AC2 (EACMCV AC2) = biological target: T3, E-AC2 (EACMCV AC2) (East African cassava mosaic Cameroon …); experiment: EMSA; conditions: tags: GST fusion (pET41a), Ni-NTA purified; label: 5'-32P
T3 chain: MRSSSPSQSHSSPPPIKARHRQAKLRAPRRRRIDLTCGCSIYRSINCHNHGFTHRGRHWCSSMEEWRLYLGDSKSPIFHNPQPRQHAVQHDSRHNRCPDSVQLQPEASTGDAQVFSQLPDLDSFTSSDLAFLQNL

B1: pre-miR159 first strand (ssRNA)
RNA: UAAAAAAGGAUUUGGUUAUAUGGAUUGCAUAUCUCAGGAGCUUUAACUUGCCCUGUUAAUGCUUUUACUCUUCUUUGGCUUGAAGGGAGCUCUAC
binding result (S-AC4 (SLCMV AC4) [1]): no binding

B2: pre-miR159 duplex (dsRNA)
RNA 1: B1 RNA
RNA 2: GUAGAGCUCCUUAAAGUUCAAACAUGAGUUGAGCAGGGUAAAGAAAAGCUGCUAAGCUAUGGAUCCCAUAAGCCCUAAUCCUUGUAAAG
binding result (S-AC4 (SLCMV AC4) [1]): no binding

TCGGACCAGGCTTCATCCCCC (ssDNA) [DmiR-165 DNA]
binding result (S-AC4 (SLCMV AC4) [1]): no binding

AUGCGAUACAACCUGAAUCUU (ssRNA) [ta-siRNA siR255]
binding result (S-AC4 (SLCMV AC4) [2]): binds

UCGGACCAGGCUUCAUCCCCC (ssRNA, 2'-OMe at last (3') nucleotide) [2'-O-methyl miR165]
binding result (S-AC4 (SLCMV AC4) [3]): binds

B3: DmiR-165::DmiR-165* DNA duplex (dsDNA)
DNA 1: TCGGACCAGGCTTCATCCCCC
DNA 2: GGGGGATGAAGCCTGGTCCGA
binding result (S-AC4 (SLCMV AC4) [1]): no binding

UCGGACCAGGCUUCAUCCCCC (ssRNA) [miR165]
binding result (S-AC4 (SLCMV AC4) [4]): binds

UUUGGAUUGAAGGGAGCUCUA (ssRNA) [miR159]
binding result (E-AC4 (EACMCV AC4)): no binding
binding result (E-AC2 (EACMCV AC2)): no binding
binding result (S-AC4 (SLCMV AC4) [1]): binds

UCCCUGAGACCUCAAGUGUGA (ssRNA) [lin-4]
binding result (S-AC4 (SLCMV AC4) [1]): binds

GAGCUCCUUAAAGUUCAAACA (ssRNA) [miR159*]
binding result (E-AC2 (EACMCV AC2)): no binding

AGGCAGUGUGGUUAGCUGGUUG (ssRNA) [miR34]
binding result (S-AC4 (SLCMV AC4) [1]): binds

B4: ta-siRNA siR255::siR255* duplex (dsRNA)
RNA 1: AUGCGAUACAACCUGAAUCUU
RNA 2: GAGAUUCAGGUUGCAUCGCGC
binding result (S-AC4 (SLCMV AC4) [1]): binds
